In article PMC3046063 (Molecular Biology of the Cell, 2011):

What was measured:
His-Gαi3 [1] = molecular target: T1, His-Gαi3 (UniProt P08753 1-354); assay: SEC
His-Gαi3 [2] = molecular target: T1, His-Gαi3; assay: cell-based or functional assay
His-Gαi3 [3] = molecular target: T1, His-Gαi3

T1 sequence (P08753 whole entry): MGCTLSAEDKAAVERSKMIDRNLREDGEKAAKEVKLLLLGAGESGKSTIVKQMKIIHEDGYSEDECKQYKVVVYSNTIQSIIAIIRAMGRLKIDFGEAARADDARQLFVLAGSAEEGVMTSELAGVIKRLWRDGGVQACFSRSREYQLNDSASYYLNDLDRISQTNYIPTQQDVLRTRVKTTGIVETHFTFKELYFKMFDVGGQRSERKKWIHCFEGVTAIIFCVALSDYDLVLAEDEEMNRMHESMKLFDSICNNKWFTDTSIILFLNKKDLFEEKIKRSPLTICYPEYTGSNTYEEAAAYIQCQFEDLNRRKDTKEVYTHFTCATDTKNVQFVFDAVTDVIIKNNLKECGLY

B1: His-GIV-CTs (aa 1660–1870) (domain or fragment, UniProt Q3V6T2-3 1660-1870, looked up)
chain: SETLESRHHKIKTGSPGSEVVTLQQFLEESNKLTSVQIKSSSQENLLDEVMKSLSVSSDFLGKDKPVSCGLARSVSGKTPGDFYDRRTTKPEFLRPGPRKTEDTYFISSAGKPTPGTQGKIKLVKESSLSRQSKDSNPYATLPRASSVISTAEGTTRRTSIHDFLTKDSRLPISVDSPPAAADSNTTAASNVDKVQESRNSKSRSREQQSS
- stoichiometry N (His-Gαi3 [1]): 1 His-Gαi3:His-GIV-CTs
- steady-state GTPase activity of His-Gαi3 (50 nM) alone with 0-2 μM His-GIV-CTs (His-Gαi3 [2]): ~3 fold
- Kd (His-Gαi3 [3]): ~300 nM
